Source: patent US10464978B2, “Peptides and combination of peptides for use in immunotherapy against ovarian cancer and other cancers” (immatics biotechnologies GmbH, priority 2015, dated 2019)

Target: HLA-A*02:01 (Homo sapiens, UniProt P04439, D140Y/D185E/D98H/E176V/E277Q/G131W/G231S/I119V/I121R/I166T/I218V/L300P/L318F/N151K/N90K/P208A/P217A/Q86G/Q94H/R138H/R169H/T345S)
Experiment: MHC binding assay: UV-ligand exchange with beta2m ELISA (peptide exchange yield)
Conditions: binding to HLA-A*02:01
Method in brief: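 Peptide-MHC complexes formed by UV-ligand exchange, a UV-cleavable peptide being replaced by the candidate peptide. Exchange products diluted 100-fold, captured on streptavidin-coated plates for 1h at 37° C, then detected with 2 ug/ml HRP anti-β2m (1h, 37° C) and TMB, absorbance 450 nm; value is exchange yield.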

Substance	Peptide exchange (MHC class I binding score, peptide exchange yield)
436 (HLAEVSAEV; listed as Homo sapiens) [compound 436]	“+++” (≥50 = +++)
277 (LLPPLESLATV; listed as Homo sapiens) [compound 277]	“++” (≥20% = ++)
165 (SLLDEIRAV; listed as Homo sapiens) [compound 165]	“+++” (≥50 = +++)
245 (SMIDDLLGV; listed as Homo sapiens) [compound 245]	“+++” (≥50 = +++)
539 (ALFDAQAQV; listed as Homo sapiens) [compound 539]	“+++” (≥50 = +++)
207 (GLTSTNAEV; listed as Homo sapiens) [compound 207]	“++” (≥20% = ++)
255 (VLASYNLTV; listed as Homo sapiens) [compound 255]	“+++” (≥50 = +++)
523 (YQIPRTFTL; listed as Homo sapiens) [compound 523]	“++” (≥20% = ++)
173 (LLDSASAGLYL; listed as Homo sapiens) [compound 173]	“+++” (≥50 = +++)
170 (RLQETLSAA; listed as Homo sapiens) [compound 170]	“+++” (≥50 = +++)
124 (ALYETELADA; listed as Homo sapiens) [compound 124]	“++” (≥20% = ++)
129 (GLLDGGVDILL; listed as Homo sapiens) [compound 129]	“+++” (≥50 = +++)
248 (FLFPNQYVDV; listed as Homo sapiens) [compound 248]	“+++” (≥50 = +++)
403 (KLYDRILRV; listed as Homo sapiens) [compound 403]	“++” (≥20% = ++)
43 (VLSSLEINI; listed as Homo sapiens) [compound 43]	“++” (≥20% = ++)
486 (AVMESIQGV; listed as Homo sapiens) [compound 486]	“+++” (≥50 = +++)
23 (VLLDDIFAQL; listed as Homo sapiens) [compound 23]	“+++” (≥50 = +++)
467 (FLAKDFNFL; listed as Homo sapiens) [compound 467]	“+++” (≥50 = +++)
546 (VMIAGKVAVV; listed as Homo sapiens) [compound 546]	“+++” (≥50 = +++)
351 (SLIPNLRNV; listed as Homo sapiens) [compound 351]	“+++” (≥50 = +++)
163 (ALDEMGDLLQL; listed as Homo sapiens) [compound 163]	“+++” (≥50 = +++)
408 (VLDDSIYLV; listed as Homo sapiens) [compound 408]	“++” (≥20% = ++)
172 (VLYSYTIITV; listed as Homo sapiens) [compound 172]	“++” (≥20% = ++)
549 (AMLENASDIKL; listed as Homo sapiens) [compound 549]	“+++” (≥50 = +++)
140 (YMDAPKAAL; listed as Homo sapiens) [compound 140]	“++” (≥20% = ++)

Substance	Peptide exchange (MHC class I binding score, peptide exchange yield)
437 (SMAPGLVIQAV; listed as Homo sapiens) [compound 437]	“+++” (≥50 = +++)
333 (FLPDANSSV; listed as Homo sapiens) [compound 333]	“++” (≥20% = ++)
524 (ALIENLTHQI; listed as Homo sapiens) [compound 524]	“++” (≥20% = ++)
300 (ALLGQTFSL; listed as Homo sapiens) [compound 300]	“+++” (≥50 = +++)
448 (NLLETKLQL; listed as Homo sapiens) [compound 448]	“+++” (≥50 = +++)
44 (ILDPISSGFLL; listed as Homo sapiens) [compound 44]	“++” (≥20% = ++)
386 (ILFRYPLTI; listed as Homo sapiens) [compound 386]	“+++” (≥50 = +++)
27 (ILADIVISA; listed as Homo sapiens) [compound 27]	“+++” (≥50 = +++)
509 (FLFDTKPLIV; listed as Homo sapiens) [compound 509]	“+++” (≥50 = +++)
560 (ALWDIETGQQTTT; listed as Homo sapiens) [compound 560]	“+++” (≥50 = +++)
329 (FLVTLNNVEV; listed as Homo sapiens) [compound 329]	“++++” (≥75% = ++++)
171 (LLLPLQILL; listed as Homo sapiens) [compound 171]	“+++” (≥50 = +++)
407 (YLMDLINFL; listed as Homo sapiens) [compound 407]	“+++” (≥50 = +++)
85 (KMSELRVTL; listed as Homo sapiens) [compound 85]	“+++” (≥50 = +++)
577 (VMFEDGVLMRL; listed as Homo sapiens) [compound 577]	“+++” (≥50 = +++)
154 (ALDDGTPAL; listed as Homo sapiens) [compound 154]	“++” (≥20% = ++)
485 (NVPDSFNEV; listed as Homo sapiens) [compound 485]	“+++” (≥50 = +++)
42 (VLLQKIVSA; listed as Homo sapiens) [compound 42]	“+++” (≥50 = +++)
561 (YLQLTQSEL; listed as Homo sapiens) [compound 561]	“+++” (≥50 = +++)
525 (VLLEAGEGLVTI; listed as Homo sapiens) [compound 525]	“+++” (≥50 = +++)
334 (TLTKVLVAL; listed as Homo sapiens) [compound 334]	“+++” (≥50 = +++)
579 (NLMEMVAQL; listed as Homo sapiens) [compound 579]	“++” (≥20% = ++)
208 (KISPVTFSV; listed as Homo sapiens) [compound 208]	“+++” (≥50 = +++)
216 (NLWEDPYYL; listed as Homo sapiens) [compound 216]	“+++” (≥50 = +++)
29 (KMLGIPISNILMV; listed as Homo sapiens) [compound 29]	“+++” (≥50 = +++)
